Key:
[1] = target: cynomolgus (cyno) MS4A4A (cynomolgus); assay: flow cytometry (anti-mouse IgG Fc-APC) on 300.19 cells transfected with cyno MS4A4A (Plate E); untransfected 300.19 cells (Plate C): mean 110
human MS4A4A (human) [2] = target: human MS4A4A (human) (UniProt Q96JQ5); assay: flow cytometry (anti-mouse IgG Fc-APC) on 300.19 cells transfected with human MS4A4A (Plate D); untransfected 300.19 cells (Plate C): mean 110
human MS4A4A (human) [3] = target: human MS4A4A (human) (UniProt Q96JQ5); assay: functional affinity, FACS titration on stably transfected 300.19 cells
human MS4A4A (human) [4] = target: human MS4A4A (human) (UniProt Q96JQ5); assay: flow cytometry (anti-mouse IgG Fc-APC) on U937 cells transfected with human MS4A4A (Plate B); untransfected U937 cells (Plate A): mean 259
[5] = target: human MS4A4A-GFP 4A.Ala.35 (ECL2 deletion of GNS) (human) (UniProt Q96JQ5); assay: FACS, HEK293T
human MS4A4A (human) [6] = target: human MS4A4A (human) (UniProt Q96JQ5); assay: flow cytometry (anti-mouse IgG Fc-APC) on HEK293 cells transiently transfected with human MS4A4A (h4A_293); 293 parental cells: mean 131
human MS4A4A (human) [7] = target: human MS4A4A (human) (UniProt Q96JQ5); assay: flow cytometry (anti-mouse IgG Fc-APC) on U937 cells transfected with human MS4A4A (Plate B); untransfected U937 cells (Plate A): mean 387
[8] = target: cynomolgus (cyno) MS4A4A (cynomolgus); assay: flow cytometry (anti-mouse IgG Fc-APC) on HEK293 cells transiently transfected with cyno MS4A4A (cy4A_293); 293 parental cells: mean 131
human MS4A4A (human) [9] = target: human MS4A4A (human) (UniProt Q96JQ5); assay: flow cytometry (anti-mouse IgG Fc-APC) on 300.19 cells transfected with human MS4A4A (Plate D); untransfected 300.19 cells (Plate C): mean 111; no primary antibody on Plate D: 177
[10] = target: cynomolgus (cyno) MS4A4A (cynomolgus); assay: flow cytometry (anti-mouse IgG Fc-APC) on 300.19 cells transfected with cyno MS4A4A (Plate E); untransfected 300.19 cells (Plate C): mean 111; no primary antibody on Plate E: 122
human MS4A4A (human) [11] = target: human MS4A4A (human) (UniProt Q96JQ5); assay: flow cytometry (anti-mouse IgG Fc-APC) on U937 cells transfected with human MS4A4A (Plate B); untransfected U937 cells (Plate A): mean 240; no primary antibody on Plate B: 246
human MS4A4A (human) [12] = target: human MS4A4A (human) (UniProt Q96JQ5); assay: flow cytometry (anti-mouse IgG Fc-APC) on 300.19 cells transfected with human MS4A4A (Plate D); untransfected 300.19 cells (Plate C): mean 106; no primary antibody on Plate D: 177
[13] = target: cynomolgus (cyno) MS4A4A (cynomolgus); assay: flow cytometry (anti-mouse IgG Fc-APC) on 300.19 cells transfected with cyno MS4A4A (Plate E); untransfected 300.19 cells (Plate C): mean 106; no primary antibody on Plate E: 122
human MS4A4A (human) [14] = target: human MS4A4A (human) (UniProt Q96JQ5); assay: flow cytometry (anti-mouse IgG Fc-APC) on U937 cells transfected with human MS4A4A (Plate B); untransfected U937 cells (Plate A): mean 229; no primary antibody on Plate B: 246
human MS4A4A (human) [15] = target: human MS4A4A (human) (UniProt Q96JQ5); assay: flow cytometry (anti-mouse IgG Fc-APC) on U937 cells transfected with human MS4A4A (Plate B); untransfected U937 cells (Plate A): mean 247; no primary antibody on Plate B: 246

Mean : APC-A [1]	Mean : APC-A (human MS4A4A (human) [2])	Kd (human MS4A4A (human) [3]) [nM]	Mean : APC-A (human MS4A4A (human) [9])	Mean : APC-A [10]	Substance	other results
129	19500	27			anti-MS4A4A antibody 5C12 (BioLegend)	% binding compared to wildtype MS4A4A [5]: 1%; Mean : APC-A (human MS4A4A (human) [6]): 7160; Mean : APC-A (human MS4A4A (human) [7]): 15000; Mean : APC-A [8]: 158
			181	116	msIgG1 Isotype Ctrl (antibody)	Mean : APC-A (human MS4A4A (human) [11]): 248

The remaining lines, values behind:

Substance	Mean : APC-A [1]	Mean : APC-A (human MS4A4A (human) [2])	Kd (human MS4A4A (human) [3]) [nM]	Mean : APC-A (human MS4A4A (human) [9])	Mean : APC-A [10]	other results
anti-MS4A4A antibody 3F2 (Millipore)	128	21100	9.5			Mean : APC-A (human MS4A4A (human) [4]): 14300
anti-MS4A4A antibody 4H2 (Kerafast)			10			
msIgG2a Isotype Ctrl (antibody)						Mean : APC-A (human MS4A4A (human) [12]): 155; Mean : APC-A [13]: 109; Mean : APC-A (human MS4A4A (human) [14]): 243
msIgG2b Isotype Ctrl (antibody)				155	107	Mean : APC-A (human MS4A4A (human) [15]): 234

From patent US20230126400A1
